{
  "source": "paper PMC5538147",
  "origin": "cited, not measured here",
  "target": "UvrD (Escherichia coli) (UniProt P03018)",
  "data": [
    {"substance": "UvrD (from UniProt P03018)", "values": [
      {"measurement": "Kd", "value": 0.47, "unit": "µM"}
    ]}
  ]
}
